Results taken from the RNAGym collection of RNA variant scans (doi:10.7554/elife.90254).

B1: OR4K15 (parent)
chain: GUUAACGGUCAUAGGCCAUGGAAACUAGGAGCACCAUUUCGCUGCCAGUGAAGAAAUGAACAAAGAAAAUCUGGGCCAGGCAGGCAUCAAAAGAAAUAGUCUUGCGCUCAACCAGAAAGUCUGUAAUCAUUUUAAGGGUA

Variants of: B1
Assay: self-cleavage, relative activity (ratio to wild type); higher = more cleavage; in vitro, sequencing; the parent is a self-cleaving ribozyme

Variant	self-cleavage
GUUAACGGUCAUAGGCCAUGGAAGCUAGGAGCACCAUUUCGCUGCCAGUGAAGAAAUGAACAAAGAAAAUCUGGGCCAGGCAGGCAUCAAAAGAAAUAGUCUUGCGCUCAAUCAGAAAGUCUGUAAUCAUUUUAAGGGUA [A24G C112U]	0.02
GUUAACGGUCAUAGGCCAUGGAAGCUAGGAGCACCAUUUCGCUGCCAGUGAAGAAAUGAACAAAGAAAAUCUGGGCCAGGCAGGCAUCAAAAGAAAUAGUCUUGCGCUCAACCAGGAAGUCUGUAAUCAUUUUAAGGGUA [A24G A116G]	0.61
GUUAACGGUCAUAGGCCAUGGAAGCUAGGAGCACCAUUUCGCUGCCAGUGAAGAAAUGAACAAAGAAAAUCUGGGCUAGGCAGGCAUCAAAAGAAAUAGUCUUGCGCUCAACCAGAAAGUCUGUAAUCAUUUUAAGGGUA [A24G C77U]	1.55
GUUAACGGUCAUAGGCCAUGGAAGCUAGGAGCACCAUUUCGCUGCCAGUGAAGAAAUGAACAAAGAAAAUCUGGGCCAGGCAGGCAUCAAAAGAAAUAGUCUUGCGCUCAUCCAGAAAGUCUGUAAUCAUUUUAAGGGUA [A24G A111U]	0.19
GUUAACGGUCAUAGGCCAUGGAAGCUAGGAGCACCAUUUCGCUGCCAGUGAAGAAAUGAACAAAGAAAAUCUGGGCCAGGCAGGCAUCAAAAGAAAUAGUCUUGCGCUCACCCAGAAAGUCUGUAAUCAUUUUAAGGGUA [A24G A111C]	0.02
GUUAACGGUCAUAGGCCAUGGAAGCUAGGAGCACCAUUUCGCUGCCAGUGAAGAAAUGAACAAAGAAAAUCUGGGCCAGGCAGGGAUCAAAAGAAAUAGUCUUGCGCUCAACCAGAAAGUCUGUAAUCAUUUUAAGGGUA [A24G C85G]	0.97
GUUAACGGUCAUAGGCCAUGGAAGCUAGGAGCACCAUUUCGCUGCCAGUGAAGAAAUGAACAAAGAAAAUCUGGGCCAGGCAGGUAUCAAAAGAAAUAGUCUUGCGCUCAACCAGAAAGUCUGUAAUCAUUUUAAGGGUA [A24G C85U]	0.95
GUUAACGGUCAUAGGCCAUGGAAGCUAAGAGCACCAUUUCGCUGCCAGUGAAGAAAUGAACAAAGAAAAUCUGGGCCAGGCAGGCAUCAAAAGAAAUAGUCUUGCGCUCAACCAGAAAGUCUGUAAUCAUUUUAAGGGUA [A24G G28A]	1.11
GUUAACGGUCAUAGGCCAUGGAAGCUAGGAGCACCAUUUCGCUGCCAGUGAAGAAAUGAACAAAGAAAAUCUGGGCCAGGCAGGCAUCAAAAGAAUUAGUCUUGCGCUCAACCAGAAAGUCUGUAAUCAUUUUAAGGGUA [A24G A96U]	0.93
GUUAACGGUCAUAGGCCAUGGAAGCUAGGAGCACCAUUUCGCUGCCAGUGAAGAAAUGAACAAAGAAAAUCUGGGCCAGGCAGGCAUCAAAAGAAAUAGUCUUGCGCUCUACCAGAAAGUCUGUAAUCAUUUUAAGGGUA [A24G A110U]	0.99
GUUAACGGUCAUAGGCCAUGGAAGCUAGGAGCACCAUUUCGCUGCCAGUGAAGAAAUGAACAAAGAAAAUCUGGGCCAGGCAGGCAUCAAAAGAAAUAGUCUUGCGCUCAACCAGAAAGUCUGUAAUCAUUUUUAGGGUA [A24G A134U]	0.93
GUUAACGGUCAUAGGCCAUGGAAGCUAGGAGCACCAUUUCGCUGCCAGUGAAGAAAUGAACAAAGAAAAUCUGGGCCAGGCAGGCAUCAAAAGAAAUAGUCUUGCGCUCAACCAGAGAGUCUGUAAUCAUUUUAAGGGUA [A24G A117G]	1.45
GUUAACGGUCAUAGGCCAUGGAAGCUAGGAGCACCAUUUCGCUGCCAGUGAAGAAAUGAACAAAGAAAAUCUGGGCCAGGCAGGCAUUAAAAGAAAUAGUCUUGCGCUCAACCAGAAAGUCUGUAAUCAUUUUAAGGGUA [A24G C88U]	0.95
GUUAACGGUCAUAGGCCAUGGAAGCUAGGAGCACCAUUUCGCUGCCAGUGAAGAAAUGAACAAAGAAAAUCUGGGCCAGGCAGGCAUCAAAAGAAAUAGUCUUGCGCUCAACCAGAAGGUCUGUAAUCAUUUUAAGGGUA [A24G A118G]	1.01
GUUAACGGUCAUAGGCCAUGGAAGCUAGGAGCACCAUUUCGCUGCCAGUGAAGAAAUGAACAAAGAAAAUCUGGGCCAGGCAGGCAUCAAAAGAAAUAGUCUUGCGCUCAACCAGAAUGUCUGUAAUCAUUUUAAGGGUA [A24G A118U]	0.51
GUUAACGGUCAUAGGCCAUGGAAGCUAGGAGCACCAUUUCGCUGCCAGUGAAGAAAUGAACAAAGAAAAUCUGGGCCAGGCAGGCAUCAAAAGAAAUAGUCUUGCGCUCAACCUGAAAGUCUGUAAUCAUUUUAAGGGUA [A24G A114U]	0.19
GUUAACGGUCAUAGGCCAUGGAAGCUAGGAGCACCAUUUCGCUGCCAGUGAAGAAAUGAACAAAGAAAAUCUGGGCCAGGCAGGCAUCAAAAGAAAUAGUCUUGCGCUCAACCAGAAAGUCUGUGAUCAUUUUAAGGGUA [A24G A125G]	0.43
GUUAACGGUCAUAGGCCAUGGAAGCUAGGAGCACCAUUUCGCUGCCAGUGAAGAAAUGAACAAAGAAAAUCUGGGCCAGGCAGGCAUCAAAAGAAAUAGUCUUGUGCUCAACCAGAAAGUCUGUAAUCAUUUUAAGGGUA [A24G C105U]	0.26
GUUAACGGUCAUAGGCCAUGGAAGCUAGGAGCACCAUUUCGCUGCCAGUGAAGAAAUGAACAAAGAAAAUCUGGGCCAGGCAGGCAUCAAAAGAAAUUGUCUUGCGCUCAACCAGAAAGUCUGUAAUCAUUUUAAGGGUA [A24G A98U]	1.74
GUUAACGGUCAUAGGCCAUGGAAGCUAGGAGCACCAUUUCGCUGCCAGUGAAGAAAUGAACAAAGAAAAUCUGGGCCAGGCAGGCAUCAAAAGAAAUGGUCUUGCGCUCAACCAGAAAGUCUGUAAUCAUUUUAAGGGUA [A24G A98G]	0.51
GUUAACGGUCAUAGGCCAUGGAAGCUAGGAGCACCAUUUCGCUGCCAGUGAAGAAAUGAACAAAGAAAAUCUGGGCCAGGCAGGCAUCAAAAGAAAUAGUCUUGCGCUCAACCAGAAAGUCUGUAUUCAUUUUAAGGGUA [A24G A126U]	0.98
